In article PMC7835374 (Nature Communications, 2021):

Molecular target: recombinant full-length hemagglutinin H6 (A/Taiwan/2/2013) (Influenza A virus A/Taiwan/2/2013 (H6N1), strain)
Test: BLI
Details: both partners purified

B1: 3I14 IgG1 (wild type) (antibody, V domains shown)
VH: QVQLLESGGGVVQPGRSLRLSCAASGFTFSNYGMHWVRQAPGKGLEWVAIISFDGSKKYYANSVKGRSTISRDNSKNTLSLQMNSLGPEDTALYYCAKLPSPYYFDSRFVWVAASAFHFWGQGILVTVSS
VL: NFMLTQPPSASGTPGQRVTISCSGSSSNIGGNTVHWFQQLPGTAPKLLIYTNSLRPSGVPDRFSGSKSGTSASLAISGLQSEDEADYYCAAWDDSLNGQVFGGGTKLTVL
notes: copies: 2 + 2
  Kd: 2.9 nM
  koff: 0.000152 s⁻¹
  kon: 51900 M⁻¹ s⁻¹
